Measured values reported in US20110014218A1 (UNIVERSITY OF NORTH CAROLINA AT CHAPEL HILL, published 2011).

Tests used:
[1] = target: T1, properdin (purified human complement component) (human, UniProt P27918 28-469); assay: solid-phase saturation binding ELISA, S20NS coated (10 ng/well), properdin titrated
T1 construct: Bought purified protein; also called fP

[2] = target: T1, properdin (purified human complement …); assay: ELISA, coated CAT, properdin in solution, detected with goat α-properdin Ab

T1 sequence (P27918 28-469 limits assumed): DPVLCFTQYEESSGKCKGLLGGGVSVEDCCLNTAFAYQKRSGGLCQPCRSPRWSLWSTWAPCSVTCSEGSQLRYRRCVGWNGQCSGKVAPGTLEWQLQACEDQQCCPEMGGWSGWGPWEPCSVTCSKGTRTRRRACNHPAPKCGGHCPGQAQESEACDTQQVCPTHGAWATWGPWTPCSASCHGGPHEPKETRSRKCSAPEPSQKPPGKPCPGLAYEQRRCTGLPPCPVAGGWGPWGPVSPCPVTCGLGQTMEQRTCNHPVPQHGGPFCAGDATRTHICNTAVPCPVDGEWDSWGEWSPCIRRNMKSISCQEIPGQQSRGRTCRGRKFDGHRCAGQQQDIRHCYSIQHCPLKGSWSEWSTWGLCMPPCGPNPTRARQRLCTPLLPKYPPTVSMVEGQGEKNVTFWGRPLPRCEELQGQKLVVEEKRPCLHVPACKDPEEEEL

Binder | Kd [1] | binding result [2]
S20NS (Salp20 protein containing C-terminal V5-epitope and 6x-histidine tags) (other, multiple N- and O-linked glycans (insect cell expressed), Recombinant protein secreted from stably transfected High Five insect cells and purified; also called I. scapularis salivary protein 20) SEDGLEQDSKVETTTQNLYERHYRNNSGLCGAQYRNSSHAEAVYNCTLSLLPPKVNETWEGIRHRINKSIPEFVRLMCNFSVVMPEDFYLVYMGSNGNSYSEEDEESTDTDKDSKTGSSAAVEVTEKLILKAEENCTAHITGWTTEAPTTLEPTETQFEAIS | 0.669 nM | –
chloramphenicol acetyl-transferase protein containing C-terminal V5-epitope and 6x-histidine tags (CAT) (enzyme, Negative control protein expressed from the same expression vector as S20NS in High Five cells) MEKKITGYTTVDISQWHRKEHFEAFQSVAQCTYNQTVQLDITAFLKTVKKNKHKFYPAFIHILARLMNAHPEFRMAMKDGELVIWDSVHPCYTVFHEQTETFSSLWSEYHDDFRQFLHIYSQDVACYGENLAYFPKGFIENMFFVSANPWVSFTSFDLNVANMDNFFAPVFTMGKYYTQGDKVLMPLAIQVHHAVCDGFHVGRMLNELQQYCDEWQGGA | – | no binding
